Reference: PMC3366936

molecular target: OPTN Δ1-394 in pCMV-BD (mammalian two-hybrid fusion) (UniProt Q96CV9); assay: mammalian two-hybrid (luciferase reporter); set-up: unit not given here; settings: HEK293 cells; 48 h after transfection; n = 3; parent: est. 6.5; read off a plot
Chain of UniProt Q96CV9 (Q96CV9 395-577, stated change not applied): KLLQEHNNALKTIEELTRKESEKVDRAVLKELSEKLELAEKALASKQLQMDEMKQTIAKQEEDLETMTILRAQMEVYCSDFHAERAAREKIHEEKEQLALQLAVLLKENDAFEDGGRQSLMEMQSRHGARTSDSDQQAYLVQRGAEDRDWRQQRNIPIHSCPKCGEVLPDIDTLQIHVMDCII

Row | Substance | response
1 | E3-14.7K wild type in pCMV-AD (mammalian two-hybrid fusion) H42D; Q43Y; C44K; K45D; R46E | 0.1
2 | E3-14.7K wild type in pCMV-AD (mammalian two-hybrid fusion) P87D; I88Y; T89K; V90D; T91E | 0.6
3 | E3-14.7K wild type in pCMV-AD (mammalian two-hybrid fusion) R22D; K23Y; A24K; A25D; S26E | 2.9
4 | E3-14.7K wild type in pCMV-AD (mammalian two-hybrid fusion) E27D; R28Y; E29K; R30D; L31E | 4.5
5 | E3-14.7K wild type in pCMV-AD (mammalian two-hybrid fusion) R17D; L18Y; L19K; E20D; R21E | 2.8
6 | E3-14.7K wild type in pCMV-AD (mammalian two-hybrid fusion) T2D; E3Y; S4K; L5D; D6E | 5.1
7 | E3-14.7K wild type in pCMV-AD (mammalian two-hybrid fusion) M38Y; V39K; N40D; L41E | 2.2
8 | E3-14.7K wild type in pCMV-AD (mammalian two-hybrid fusion) T62D; T63Y; T64K; G65D; N66E | 0.5
9 | E3-14.7K wild type in pCMV-AD (mammalian two-hybrid fusion) I12D; N13Y; T14K; E15D; Q16E | 4.6
10 | E3-14.7K wild type in pCMV-AD (mammalian two-hybrid fusion) L7D; E8Y; L9K; G11E | 6
11 | E3-14.7K wild type in pCMV-AD (mammalian two-hybrid fusion) M82D; V83Y; G84K; E85D; K86E | 0.2
12 | E3-14.7K wild type in pCMV-AD (mammalian two-hybrid fusion) H102D; F103Y; P104K; Y105D; Q106E | 11
